Measurements from US20040170969.

System: recombinant MOB expressed as a GST-fusion protein

Sequence of FLAG-Ndr (cells treated with okadaic acid) (chain, as listed by the source): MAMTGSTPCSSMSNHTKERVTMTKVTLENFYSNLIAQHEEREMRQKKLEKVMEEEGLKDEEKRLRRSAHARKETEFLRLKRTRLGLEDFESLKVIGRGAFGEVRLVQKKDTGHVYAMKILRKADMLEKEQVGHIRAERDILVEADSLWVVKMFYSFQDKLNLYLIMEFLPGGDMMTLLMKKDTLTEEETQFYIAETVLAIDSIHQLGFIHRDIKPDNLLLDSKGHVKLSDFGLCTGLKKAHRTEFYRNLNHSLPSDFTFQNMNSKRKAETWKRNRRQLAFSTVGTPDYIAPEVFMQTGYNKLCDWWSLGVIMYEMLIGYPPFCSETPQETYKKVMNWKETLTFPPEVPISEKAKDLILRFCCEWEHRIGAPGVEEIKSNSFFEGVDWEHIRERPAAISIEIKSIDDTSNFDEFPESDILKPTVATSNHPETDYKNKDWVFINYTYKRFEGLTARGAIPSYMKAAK

Q: With “FLAG-Ndr (cells treated with okadaic acid)” as the substance, how does the “phosphorylation of GST-MOB by Ndr (FIG. 19)” value read?
A: The value was “recombinant MOB expressed as a GST-fusion protein is specifically phosphorylated by active Ndr”.
